This is an account of results in patent US20140350088A1.

In this experiment the target is human C5a receptor (human) (UniProt P21730). As to the kind of experiment: cell-based or functional assay.
Sequence of human C5a receptor (human) (P21730 whole entry): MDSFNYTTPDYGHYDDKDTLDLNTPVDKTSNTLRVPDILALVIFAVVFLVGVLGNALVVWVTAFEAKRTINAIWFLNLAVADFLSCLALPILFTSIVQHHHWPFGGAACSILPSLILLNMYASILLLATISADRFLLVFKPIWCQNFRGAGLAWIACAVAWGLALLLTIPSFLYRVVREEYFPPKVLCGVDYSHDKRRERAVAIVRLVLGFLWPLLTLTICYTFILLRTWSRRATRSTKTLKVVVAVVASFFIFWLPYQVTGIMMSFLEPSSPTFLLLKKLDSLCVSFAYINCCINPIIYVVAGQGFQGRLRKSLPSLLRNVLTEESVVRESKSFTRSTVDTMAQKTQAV

As to “mouse C5a (from UniProt P06684 679-755) (ligand)”, the half-maximal effective concentration (EC50) in chemotaxis assay of BA/F3/huC5aR cells came to 0.3 nM.

As for “recombinant human C5a (from UniProt P01031 678-751) (ligand)”, the half-maximal effective concentration (EC50) in chemotaxis assay of BA/F3/huC5aR cells was determined as 0.1 nM.
